From US20180104312A1 (Eli Lilly, published 2018)
No end group written: not given here.

T1: human glucose-dependent insulinotropic polypeptide receptor (human, UniProt P48546 22-466)
T1 sequence (looked up): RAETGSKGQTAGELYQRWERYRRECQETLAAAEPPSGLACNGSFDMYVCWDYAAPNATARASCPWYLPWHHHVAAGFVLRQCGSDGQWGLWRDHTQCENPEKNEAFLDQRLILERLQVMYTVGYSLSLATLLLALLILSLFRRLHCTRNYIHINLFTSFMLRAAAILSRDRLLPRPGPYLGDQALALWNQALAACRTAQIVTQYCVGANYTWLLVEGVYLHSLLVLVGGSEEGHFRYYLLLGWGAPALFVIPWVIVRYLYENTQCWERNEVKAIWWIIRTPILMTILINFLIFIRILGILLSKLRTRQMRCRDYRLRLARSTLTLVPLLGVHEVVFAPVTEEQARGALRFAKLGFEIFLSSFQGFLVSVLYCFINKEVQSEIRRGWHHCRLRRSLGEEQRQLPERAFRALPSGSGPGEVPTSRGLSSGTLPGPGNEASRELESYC


How the values were obtained:
[1] = molecular target: T2, recombinant human glucagon receptor (human, UniProt P47871 26-477); assay: I-125-Gcg competition SPA, membranes of 293HEK cells expressing hGcg-R
T2 construct: whole, on cells; cAMP assay: whole 293HEK cells; also called hGcg-R; human Gcg-R
Experimental: (§1) The specific activity is 2200 Ci/mmol. KD determination is performed by homologous competition or saturation binding analysis.
(§2) The receptor binding assay is carried out using a Scintillation Proximity Assay (SPA) format with wheat germ agglutinin (WGA) beads (Perkin Elmer). The binding buffer contains 25 mM 4-(2-hydroxyethyl)-1-piperazineethanesulfonic acid (HEPES), pH 7.4, 2.5 mM CaCl₂, 1 mM MgCl₂, 0.1% (w/v) bacitracin (Affymetrix), 0.003% (w/v) Polyoxyethylenesorbitan monolaurate (TWEEN®-20) and Roche Complete™ Protease Inhibitors without EDTA.

[2] = molecular target: T1, human glucose-dependent insulinotropic …; assay: cell-based or functional assay
[3] = molecular target: T3, human Glucagon-Like Peptide-1 receptor (human, UniProt P43220 24-463); assay: cell-based or functional assay
[4] = molecular target: T2, recombinant human glucagon receptor; assay: cell-based or functional assay
[5] = molecular target: T4, mouse glucagon receptor (mouse, UniProt Q61606 27-485); assay: I-125-Gcg competition SPA, membranes of 293HEK cells expressing mGcg-R
T4 construct: whole, on cells; Used as membranes of a clonal 293HEK line; also called mGcg-R; mGcgR
Experimental: as §1, §2

[6] = molecular target: T5, rat glucagon receptor (rat, UniProt P30082 27-485); assay: I-125-Gcg competition SPA, membranes of 293HEK cells expressing rGcg-R
T5 construct: whole, on cells; Used as membranes of transiently transfected 293HEK cells; also called rGcg-R; rat Gcg-R
Experimental: as §1, §2

[7] = molecular target: T1, human glucose-dependent insulinotropic …; assay: cell-based or functional assay; remark: listed apart in the source
[8] = molecular target: T3, human Glucagon-Like Peptide-1 receptor; assay: cell-based or functional assay; remark: listed apart in the source
[9] = molecular target: T2, recombinant human glucagon receptor; assay: cell-based or functional assay; remark: listed apart in the source
[10] = molecular target: T1, human glucose-dependent insulinotropic …; assay: cell-based or functional assay; remark: listed apart in the source
[11] = molecular target: T3, human Glucagon-Like Peptide-1 receptor; assay: cell-based or functional assay; remark: listed apart in the source
[12] = molecular target: T2, recombinant human glucagon receptor; assay: cell-based or functional assay; remark: listed apart in the source

T4 sequence (Q61606 27-485): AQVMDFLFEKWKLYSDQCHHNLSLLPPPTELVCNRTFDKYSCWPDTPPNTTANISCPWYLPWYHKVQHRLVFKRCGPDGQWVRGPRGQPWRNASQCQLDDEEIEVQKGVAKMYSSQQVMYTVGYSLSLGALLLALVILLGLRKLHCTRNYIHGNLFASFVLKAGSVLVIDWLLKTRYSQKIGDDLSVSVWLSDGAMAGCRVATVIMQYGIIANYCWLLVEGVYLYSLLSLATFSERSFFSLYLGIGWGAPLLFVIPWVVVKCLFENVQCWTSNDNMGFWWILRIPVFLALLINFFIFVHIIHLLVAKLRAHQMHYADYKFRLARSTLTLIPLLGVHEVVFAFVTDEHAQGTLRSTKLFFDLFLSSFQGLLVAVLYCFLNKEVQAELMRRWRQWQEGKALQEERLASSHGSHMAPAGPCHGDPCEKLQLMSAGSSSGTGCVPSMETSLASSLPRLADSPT
T2 sequence (P47871 26-477): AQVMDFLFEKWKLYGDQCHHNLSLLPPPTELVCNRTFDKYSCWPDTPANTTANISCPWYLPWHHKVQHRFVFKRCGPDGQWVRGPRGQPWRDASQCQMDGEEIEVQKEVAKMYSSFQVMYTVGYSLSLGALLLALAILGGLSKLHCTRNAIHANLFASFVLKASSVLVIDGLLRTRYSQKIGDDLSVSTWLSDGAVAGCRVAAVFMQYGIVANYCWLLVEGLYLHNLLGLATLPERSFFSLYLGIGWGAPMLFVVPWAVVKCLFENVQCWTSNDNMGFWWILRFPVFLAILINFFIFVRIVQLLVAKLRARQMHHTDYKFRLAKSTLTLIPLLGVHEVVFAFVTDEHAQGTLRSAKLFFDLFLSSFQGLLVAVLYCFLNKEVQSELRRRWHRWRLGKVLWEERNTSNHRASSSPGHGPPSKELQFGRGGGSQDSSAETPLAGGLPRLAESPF
T5 sequence (P30082 27-485): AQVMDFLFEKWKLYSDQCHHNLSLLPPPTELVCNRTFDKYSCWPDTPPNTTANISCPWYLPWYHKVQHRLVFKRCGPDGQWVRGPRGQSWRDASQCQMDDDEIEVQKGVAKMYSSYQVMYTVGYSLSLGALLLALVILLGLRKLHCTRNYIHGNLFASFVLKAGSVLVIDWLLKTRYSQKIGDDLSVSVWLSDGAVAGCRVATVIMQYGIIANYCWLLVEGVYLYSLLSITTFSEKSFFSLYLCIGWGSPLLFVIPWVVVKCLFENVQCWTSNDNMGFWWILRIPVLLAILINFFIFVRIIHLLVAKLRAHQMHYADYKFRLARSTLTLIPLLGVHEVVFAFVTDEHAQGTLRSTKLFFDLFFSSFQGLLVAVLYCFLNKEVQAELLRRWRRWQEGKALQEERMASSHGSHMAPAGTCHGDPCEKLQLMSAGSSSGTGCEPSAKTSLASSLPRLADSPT

Binder	Ki [1] [nM]	EC50, cAMP, GIP Receptor Assay; sample C6.5-4 C.-4 wk [2] [nM]	EC50, cAMP, GIP Receptor Assay; sample C6.5-40 C.-4 wk [2] [nM]	EC50, cAMP, GIP Receptor Assay; sample C6.5MT-4 C.-4 wk [2] [nM]	EC50, cAMP, GIP Receptor Assay; sample C6.5MT-40 C.-4 wk [2] [nM]	EC50, cAMP, GLP-1 Receptor Assay; sample C6.5-4 C.-4 wk [3] [nM]	EC50, cAMP, GLP-1 Receptor Assay; sample C6.5-40 C.-4 wk [3] [nM]	EC50, cAMP, GLP-1 Receptor Assay; sample C6.5MT-4 C.-4 wk [3] [nM]	EC50, cAMP, GLP-1 Receptor Assay; sample C6.5MT-40 C.-4 wk [3] [nM]	EC50, cAMP, Gcg Receptor Assay; sample C6.5-4 C.-4 wk [4] [nM]	EC50, cAMP, Gcg Receptor Assay; sample C6.5-40 C.-4 wk [4] [nM]	EC50, cAMP, Gcg Receptor Assay; sample C6.5MT-4 C.-4 wk [4] [nM]	EC50, cAMP, Gcg Receptor Assay; sample C6.5MT-40 C.-4 wk [4] [nM]	Ki [5] [nM]	Ki [6] [nM]	EC50, cAMP, GIP Receptor Assay; sample T7-4 C.-4 wk [7] [nM]	EC50, cAMP, GIP Receptor Assay; sample T7-40 C.-4 wk [7] [nM]	EC50, intracellular cAMP (HTRF) [10] [nM]	EC50, intracellular cAMP (HTRF) [11] [nM]	EC50, intracellular cAMP (HTRF) [12] [nM]	also measured
YXQGTFTSDYSKYLDXKKAXEFVEWLLETGPSSGAPPPS (Aib at positions 2 and 16; K20 epsilon-amino group conjugated with ([2-(2-Amino-ethoxy)-ethoxy]-acetyl)2-(γGlu)2-CO-(CH2)16-CO2H; C-terminal primary amide) [Example 1]	2.04	> 100	> 100	> 100	> 100	41.6	54.6	55.6	47.9	0.0178	0.0243	0.0188	0.0146	1.92	9.78	> 100	> 100	> 500	73.9	0.00436	EC50, cAMP, GIP Receptor Assay; sample T7m-4 C.-4 wk [7]: > 100 nM; EC50, cAMP, GIP Receptor Assay; sample T7m-40 C.-4 wk [7]: > 100 nM; EC50, cAMP, GLP-1 Receptor Assay; sample T7-4 C.-4 wk [8]: > 100 nM; EC50, cAMP, GLP-1 Receptor Assay; sample T7-40 C.-4 wk [8]: 57.5 nM; EC50, cAMP, GLP-1 Receptor Assay; sample T7m-4 C.-4 wk [8]: 43.8 nM; EC50, cAMP, GLP-1 Receptor Assay; sample T7m-40 C.-4 wk [8]: 49.7 nM; EC50, cAMP, Gcg Receptor Assay; sample T7-4 C.-4 wk [9]: 0.0203 nM; EC50, cAMP, Gcg Receptor Assay; sample T7-40 C.-4 wk [9]: 0.0217 nM; EC50, cAMP, Gcg Receptor Assay; sample T7m-4 C.-4 wk [9]: 0.023 nM; EC50, cAMP, Gcg Receptor Assay; sample T7m-40 C.-4 wk [9]: 0.0194 nM
YXQGTFTSDYSKYLDXKKAXEFVEWLLETGPSSGAPPPS (Aib at positions 2 and 16; K20 epsilon-amino group conjugated with ([2-(2-Amino-ethoxy)-ethoxy]-acetyl)2-(γGlu)2-CO-(CH2)18-CO2H; C-terminal primary amide) [Example 2]	1.07													0.991	5.59			> 500	> 100	0.0112	
YXQGTFLSDYSKYLDXKKAXEFVEWLLETGPSSGAPPPS (Aib at positions 2 and 16; K20 epsilon-amino group conjugated with ([2-(2-Amino-ethoxy)-ethoxy]-acetyl)2-(γGlu)2-CO-(CH2)16-CO2H; C-terminal primary amide) [Example 3]	0.287	> 100	> 100	> 100	> 100	> 100	> 100	> 100	> 100	0.0369	0.0257	0.0193	0.0214	0.174	1.56	> 100	> 100	> 500	> 100	0.0034	EC50, cAMP, GIP Receptor Assay; sample T7m-4 C.-4 wk [7]: > 100 nM; EC50, cAMP, GIP Receptor Assay; sample T7m-40 C.-4 wk [7]: > 100 nM; EC50, cAMP, GLP-1 Receptor Assay; sample T7-4 C.-4 wk [8]: > 100 nM; EC50, cAMP, GLP-1 Receptor Assay; sample T7-40 C.-4 wk [8]: > 100 nM; EC50, cAMP, GLP-1 Receptor Assay; sample T7m-4 C.-4 wk [8]: > 100 nM; EC50, cAMP, GLP-1 Receptor Assay; sample T7m-40 C.-4 wk [8]: > 100 nM; EC50, cAMP, Gcg Receptor Assay; sample T7-4 C.-4 wk [9]: 0.0143 nM; EC50, cAMP, Gcg Receptor Assay; sample T7-40 C.-4 wk [9]: 0.0249 nM; EC50, cAMP, Gcg Receptor Assay; sample T7m-4 C.-4 wk [9]: 0.0211 nM; EC50, cAMP, Gcg Receptor Assay; sample T7m-40 C.-4 wk [9]: 0.0211 nM
YAEGTFISDYSIAMDKIHQQDFVNWLLAQKGKKNDWKHNITQ-NH2 [human GIP(1-42)NH2]																				> 10	
